This note sets out measurements from US20230242902A1, “A HIGHLY ERROR-PRONE […] R[…] FOR TARGETED CONTINUOUS EVOLUTION IN VIVO” (The Regents of the University of California, priority 2017, published 2023).

First the molecules themselves.
B1: G410F: TP-DNAP1 variant (protein)
chain: MDYKDKALNDLRNVYADFDSLPLDFRQILIKDRATLLQKEDVEKKILERQEDAKKYAEYLKQSEIPERISLPNIKRHKGVSISFEETSEDMVLEPRPFIFDGLNIRCFRRETIFSLKNKILNMVKESSSFKNVSRQSVSFMYFKIFNKGKVIASTKSVNIYEDKIDERLEDLCNNFDDVLKKIIDVTYGYESLFVSETYSYVIFYAKSIYFPQPRCVNNWGNNIPNILTFDSFKLFTANKNNVSCIKQCSRFLWQKDFNTLEEMIEYKNGNICIVTPQLHINDVRDIKSFNDIRLYSESPIKTFSVIDNTITYLFYFKEHLGVIFNITKSRHDRRVTKFSPLSKFSDVKNITVCFDIESYFDPEKESNQVNIPFICCASIIYNKVIGNIVDFEGRDCVAQMIEYVVDICFELNISSVELIAHNGGGYDFHYILSSMYNPAAIKNILIRNNSFISFNFAHDGVKFSVKDSYSFLLCSLANASKAFLNEETFKKTDFPHHDLKTADDLYKVYKEWSSVNTEINHVVEKEKLLITSEHIVNFTKNDKSKTLIEWSKDYCRNDVLVLSKVWLEFKNAVEDIFNCELVDQTMTLAGLSYKLFQANMPFDVELRHPNKEDYFNMREALIGGRCISVNGIYKDVLCLDVKSLYPASMAFYDQPYGSFKRVSSRPKDELGIYYVRVTPNRNNKSNFFPIRSHNKITYNNFEESTYIAWYTNVDIDIGLSEGHNIEYIPFDSYGNIGYSWSKKGKIFEKYIKDVLYKLKIKYEKQNNKVKRNVIKIIMNSLWGKFAQKWVNFEYFIKSEDDIDFESEEAYKIWDTDFMLIKKIKESTYSSKPIQNGVFTLSWARYHMKSIWDAGAKEGAECIYSDTDSIFVHKEHFKKNAKFMLNGLKVPIIGSEVGQLELECEFDKLLCAGKKQYMGFYTYFQDGKPCIKEKKRFKGIPSNYIIPELYAHLLSGADKEAKIQFLKFRREWGSVKGYIENKTVKAT
B2: G461K: TP-DNAP1 variant (protein)
chain: B1 chain with F410G, G461K
B3: E411G: TP-DNAP1 variant (protein)
chain: B1 chain with F410G, E411G
B4: N413E: TP-DNAP1 variant (protein)
chain: B1 chain with F410G, N413E
B5: E411A: TP-DNAP1 variant (protein)
chain: B1 chain with F410G, E411A
B6: G426T: TP-DNAP1 variant (protein)
chain: B1 chain with F410G, G426T
B7: G410S: TP-DNAP1 variant (protein)
chain: B1 chain with F410S
B8: D460G: TP-DNAP1 variant (protein)
chain: B1 chain with F410G, D460G
B9: N413H: TP-DNAP1 variant (protein)
chain: B1 chain with F410G, N413H
B10: E411S: TP-DNAP1 variant (protein)
chain: B1 chain with F410G, E411S
B11: E411N: TP-DNAP1 variant (protein)
chain: B1 chain with F410G, E411N
B12: G410T: TP-DNAP1 variant (protein)
chain: B1 chain with F410T
B13: G410W: TP-DNAP1 variant (protein)
chain: B1 chain with F410W
B14: L412V: TP-DNAP1 variant (protein)
chain: B1 chain with F410G, L412V
B15: E411D: TP-DNAP1 variant (protein)
chain: B1 chain with F410G, E411D
B16: N291K: TP-DNAP1 variant (protein)
chain: B1 chain with N291K, F410G
B17: N291M: TP-DNAP1 variant (protein)
chain: B1 chain with N291M, F410G
B18: N611Q: TP-DNAP1 variant (protein)
chain: B1 chain with F410G, N611Q
B19: I414F: TP-DNAP1 variant (protein)
chain: B1 chain with F410G, I414F
B20: N413T: TP-DNAP1 variant (protein)
chain: B1 chain with F410G, N413T
B21: E411R: TP-DNAP1 variant (protein)
chain: B1 chain with F410G, E411R
B22: E411K: TP-DNAP1 variant (protein)
chain: B1 chain with F410G, E411K
B23: S415V: TP-DNAP1 variant (protein)
chain: B1 chain with F410G, S415V
B24: G410Y: TP-DNAP1 variant (protein)
chain: B1 chain with F410Y
B25: E411L: TP-DNAP1 variant (protein)
chain: B1 chain with F410G, E411L

Residue numbers refer to the chain shown, from its start. Numbers in names are those of the source.

The subject of the experiment is p1. The experiment in a line: p1 copy number by p1-encoded mKate2 fluorescence. Type of experiment: cell-based, S. cerevisiae. The note with it: OR-Y24, measured in triplicate. On the procedure:
A calibration curve was established to correlate p1 copy number, determined via quantitative PCR (qPCR), with fluorescence of p1-encoded mKate2 (Table 1). Five TP-DNAP1 variants representing a wide range of copy numbers were transformed into ORY24 and passaged until w.t. p1 was displaced. The five OR-Y24 strains were grown to saturation, diluted 1:10,000 to mimic p1 fluctuation tests, and grown in triplicate 100 μL cultures and duplicate 40 mL cultures. 100 μL saturated cultures were subject to fluorescence measurement of mKate2 (ex/em=561 nm/620 nm, bandwidth=15 nm) on a flow cytometer (Invitrogen Attune NxT). Whole-cell DNA extracts were prepared from 40 mL cultures and used as templates for qPCR measurement of p1-encoded leu2 (Q180*), as described previously (Ravikumar et al., 2014). p1-encoded LEU2 was PCR amplified with qPCR-Leu2F and qPCR Leu2R; and genomic LEU3 was PCR amplified with qPCR-Leu3F and qPCR-Leu3R using SyBR Green (Fisher Scientific) master mix.
To assay p1 copy number for large-scale p1 fluctuation tests, additional replicates of OR-Y24 strains were grown from the 1:10,000 dilution in triplicate and saturated cultures were subject to fluorescence measurement via flow cytometry. Fluorescence measurements were converted to copy number with the linear calibration curve.
To assay relative p1 copy number for small-scale p1 fluctuation tests, an additional 200 μL culture of OR-Y24 strains were grown from the 1:10,000 dilution. 200 μL saturated cultures were subject to an OD600 measurement and fluorescence measurement of mKate2 (ex/em=588 nm/633 nm), using a microplate reader (TECAN Infinite M200 PRO). A linear relationship was assumed between p1 copy number and OD600-normalized mKate2 fluorescence. Copy numbers were calculated from normalization to a w.t. TP-DNAP1 control.
For a few large-scale p1 fluctuation tests, p1 copy number was assayed by the method of small scale p1 fluctuation tests (i.e. microplate reader measurement). For these experiments, mutant TP-DNAP1 p1 copy numbers were calculated by normalization to a w.t. TP-DNAP1 control. The copy number of this control was assumed to be the average w.t. TP-DNAP1 copy number from all large-scale p1 fluctuation tests that used flow cytometry measurements.
TP-DNAP1 plasmids were isolated from these strains and subject to Sanger sequencing. 210 unique variants were identified and the corresponding plasmids were re-transformed into OR-Y24. Transformed strains were passaged in SC-UH until w.t. p1 was displaced, and subject to p1 copy number measurement in triplicate. Four high copy variants were directly subject to qPCR measurements for validation. To test the suppressor activity of the G410H mutation, which yields increased p1 copy number, this amino acid change was added to several low-activity TP-DNAP1 variants. p1 copy number was similarly assayed for these strains.
As for B1, the “Mean fold-increase over w.t. (p1 copy number)” value (shortened to “Mean fold-increase”) turned out to be 2.66 fold. As to B2, the “Mean fold-increase” value turned out to be 2.15 fold. Regarding B3, the “Mean fold-increase” value is listed as 1.54 fold. On to B4, for which the “Mean fold-increase” value is recorded as 2.62 fold. For the molecule B5, the “Mean fold-increase” value is listed as 2.08 fold. With B6 the figure was 1.22 fold; with B7, 2.27 fold. As to B8, the “Mean fold-increase” value stood at 1.63 fold. With B9, the “Mean fold-increase” value turned out to be 2.2 fold. Next, B10: 1.52 fold; B11: 1.9 fold; B12: 2.57 fold. Take B13: the “Mean fold-increase” value worked out at 2.5 fold. For the molecule B14, the “Mean fold-increase” value is 2.21 fold.

B15: the “Mean fold-increase” value amounted to 2.32 fold. Consider B16, for which the “Mean fold-increase” value is recorded as 1.66 fold. For B17, the “Mean fold-increase” value came to 2.28 fold. Next, B18: 1.92 fold; B19: 1.29 fold; B20: 1.76 fold. With B21, the “Mean fold-increase” value stood at 2.07 fold. Take B22: the “Mean fold-increase” value is given as 2.39 fold. Next, B23: 1.44 fold; B24: 2.73 fold; B25: 2.22 fold.
